Values of other authors as cited in patent publication US20150182494A1, “METHOD OF MANAGING DIABETIC FOOT ULCERS, PRESSURE ULCERS, VENOUS LEG ULCERS AND ASSOCIATED COMPLICATION” (INDUS BIOTECH PRIVATE LIMITED, priority 2012, published 2015).

Details: patients treated with 3 or more tubes

## becalpermin [Regranex gel]
  Mortality secondary to malignancy, in words: increased rate of mortality secondary to malignancy
